Source: publication PMC5061367

Columns and labels:
APOBEC3C I188 (human) [1] = target: APOBEC3C I188 (human) (UniProt Q9NRW3); assay: cross-linking; 0.5 μM protein with 10 μM BS3 in 20 mM Hepes pH 7.5, 150 mM NaCl, 1 mM DTT, 1 hour at 21°C; SDS-PAGE and Western blot with anti-APOBEC3C
APOBEC3C I188 (human) [2] = target: APOBEC3C I188 (human) (UniProt Q9NRW3); assay: SEC; 10 μg of purified enzyme on a 10 mL Superdex 200 column; 50 mM Tris pH 8.0, 200 mM NaCl, 1 mM DTT; masses from a Bio-Rad standard curve; fractions read by SDS-PAGE and Western blot

stoichiometry N (APOBEC3C I188 (human) [1]): 2
stoichiometry N (APOBEC3C I188 (human) [2]): 2
Substance: APOBEC3C I188 (from UniProt Q9NRW3 1-190) (enzyme)
